Experimental data published in PMC3896448 (2014).
Where a chain is given by its changes, count along the chain named. Each block holds one binder with its values, some of them ahead of it.

Legend:
hen egg-white lysozyme [1] = target: T1, hen egg-white lysozyme (hen (egg-white), UniProt P00698 19-147)
hen egg-white lysozyme [2] = target: T1, hen egg-white lysozyme; assay: SPR

T1 sequence (P00698 19-147): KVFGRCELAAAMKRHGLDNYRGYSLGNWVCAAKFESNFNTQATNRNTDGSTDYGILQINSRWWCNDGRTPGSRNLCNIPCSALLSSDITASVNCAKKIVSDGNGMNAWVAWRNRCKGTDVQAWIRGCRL

B1: OBody AM1L10 (designed binder)
chain: AMGSVYPKKTHWTAEITPNLHGTEVVVAGWVASLGDYGRVKIVKVSDREGGAAVSVYLEYGKTPDHLFKVFAELSREDVVVIKGIVEASKAAADMHNGVEIFPSEIWILNKAK
Kd (hen egg-white lysozyme [1]): 4600 nM

B4: OBody AM1L200 (designed binder)
chain: VYPKKTHWTAEITPNLHGTEVVVAGWVAHLGDYGRVMIVKVSDREGGAAVPVYLERGKTPDHLFKVFAELSREDVVVIKGIVEASKQYGSDTGVEIFPSEIWILNKAKPLPID
Kd (hen egg-white lysozyme [1]): 1200 nM

Continued, values first:

koff (hen egg-white lysozyme [2]): 0.0256 s⁻¹
B2: OBody AM3L15 (designed binder)
chain: B4 chain with Y2S, T19S, M37K, S85G, K86W, Q87P, Y88V, G89A, S90L

koff (hen egg-white lysozyme [2]): 0.00249 s⁻¹
B3: OBody AM3L09 (designed binder)
chain: B4 chain with Y2S, T19S, M37K, S85T, K86T, Q87V, Y88T, G89R, S90W
